In patent US20060003399A1, “High throughput actin polymerization assay” (Cytokinetics, Inc., priority 2004, published 2006):

How the values were obtained:
[1] = Solubility of purified full-length WASP / N-WASP; type: physicochemical; settings: purified TAP-tag protein from 293 cells
Arp2/3 = assay: Activities of WASP/N-WASP proteins (Table 4); type: biochemical
Description: The term “variant” or “analogue” generally refers to proteins that are functional equivalents to a native sequence that have similar amino acid sequences and retain, to some extent, one of the activities of the corresponding native protein. Variants/analogues include fragments that retain one or more activities of the corresponding native protein. Examples of WASP and N-WASP activity include, but are not limited to, capacity to: 1) bind Arp2/3 and actin; 2) activate the actin nucleation activity of Arp2/3 (descriptions of assays to detect nucleation activity are provided below); 3) bind an upstream regulator; 4) be regulated by one or more upstream regulators, thereby rendering the WASP or N-WASP protein able to activate the nucleation activity of Arp2/3; and 5) bind downstream regulators initiating signal transduction cascades. Some of the WASP and N-WASP proteins that are provided are able to recapitulate the full activity of WASP or N-WASP, which means that these proteins have all five of the activities just listed. […]
A third class of NPF proteins that can be utilized in some assays include WASP, N-WASP and SCAR proteins that include the WH1 domain but in which the PolyPro region is (e.g., deleted). A fourth class of NPF proteins that can be utilized in some assays are WASP, N-WASP and SCAR deletion mutants in which the PolyPro region is maintained but an N-terminal region (e.g., WH1 domain) is at least partially removed. Some proteins in this class are ones that include the B, CRIB/GBD (WASP and N-WASP), PolyPro and VCA domains, but in which some or all of the WH1 has been removed. One specific example is 98N-WASP, which includes amino acids 98-501 of SEQ ID NO:4. Another specific example is the 105WASP protein, which includes amino acids 105-501 of SEQ ID NO:2 (see FIG. 4B).
As indicated in this table, specific examples of fusion proteins that can be utilized include those that include a segment that encodes full-length WASP or N-WASP, including: Myc-WASP-TAP (SEQ ID NO:14); and Myc-N-WASP-TAP (SEQ ID NO: 16). Examples of fusion proteins that include a WASP or N-WASP deletion mutant domain include: GST-105WASP (SEQ ID NO:18); Myc-105WASP-TAP (SEQ ID NO:20); GST-tev-98N-WASP (SEQ ID NO:22); and Myc-98N-WASP-TAP (SEQ ID NO:24). The TAP tag in these particular fusion proteins has the general structure CBP-tev-ProtA (SEQ ID NO:36). Fusion proteins such as those listed in Table 4 can in some instances be utilized directly, or after one or both of the C- and N-terminal tags are removed. For example, the fusion proteins listed in Table 4 as having a TAP tag can be used once the TAP tag has been cleaved off and/or after the C-terminal tag has been removed.

Arp2/3 complex = target: T1, Arp2/3 complex; assay: Actin polymerization assay comparing FL-WASP/N-WASP and truncated forms of WASP; type: biochemical, human; settings: without activators, FIG. 7
T1 construct: from tissue
Protocol: 1. A cellular extract containing Arp2/3 complex was prepared from an Arp2/3 source such as human platelets (see, e.g., U.S. Provisional Application No. 60/578,969, filed Jun. 10, 2004; Welch and Mitchison (Meth. Enzymology 298:52-61,1988); and Higgs, H. N. et al. (Biochemistry 38:15212-15222, 1999), all of which are incorporated herein by reference in their entirety for all purposes).
Samples containing candidate agents (individually or as mixtures) are placed into wells on a multi-well plate. Mix 1 is added to each of the wells and mixed with the candidate agent. A sample of Mix 2 is then introduced into each well and the resulting mixture thoroughly mixed. Typically, Mix 1 and Mix 2 are mixed in 1:1 ratio (e.g., 50 μl each of Mix 1 and Mix 2).
Actin polymerization is measured as a function of time by exciting pyrene at 365 nm and by detecting an increase in fluorescence emission at 407 nm, or by exciting acrylodan at 405 nm and by detecting an increase in fluorescence emission at 460 nm. The change in fluorescence over time is utilized to determine a fluorescence parameter (e.g., maximal velocity, time to half maximal fluorescence intensity, or area under the curve of a plot of fluorescence versus time; see e.g., FIGS. 5A-5F).
Arp2/3 was purified as described in Example 1. […]

B1: FL-N-WASP: full length human N-WASP (SEQ ID NO:4), nucleation promoting factor (protein, listed as Homo sapiens)
chain: MSSVQQQPPPPRRVTNVGSLLLTPQENESLFTFLGKKCVTMSSAVVQLYAADRNCMWSKKCSGVACLVKDNPQRSYFLRIFDIKDGKLLWEQELYNNFVYNSPRGYFHTFAGDTCQVALNFANEEEAKKFRKAVTDLLGRRQRKSEKRRDPPNGPNLPMATVDIKNPEITTNRFYGPQVNNISHTKEKKKGKAKKKRLTKADIGTPSNFQHIGHVGWDPNTGFDLNNLDPELKNLFDMCGISEAQLKDRETSKVIYDFIEKTGGVEAVKNELRRQAPPPPPPSRGGPPPPPPPPHNSGPPPPPARGRGAPPPPPSRAPTAAPPPPPPSRPSVAVPPPPPNRMYPPPPPALPSSAPSGPPPPPPSVLGVGPVAPPPPPPPPPPPGPPPPPGLPSDGDHQVPTTAGNKAALLDQIREGAQLKKVEQNSRPVSCSGRDALLDQIRQGIQLKSVADGQESTPPTPAPTSGIVGALMEVMQKRSKAIHSSDEDEDEDDEEDFEDDDEWED
modifications: (1)..(505) FL-N-WASP
In the case of B1, the “solubility (in words)” value [1] is reported as “completely soluble”, the “Activate Arp2/3?” value (Arp2/3) is reported as “Yes” and the “Regulated By Which Upstream Regulators?” value (Arp2/3) is reported as “Cdc42, PIP2, Nck, Rac1”. The “stimulation of actin polymerization by the protein alone (in words)” value (Arp2/3 complex) was “weakly stimulate actin polymerization”.
